Results published in paper PMC2665219 (Nucleic Acids Research, 2009).

T1: EbfC (Borrelia burgdorferi, UniProt O51418 1-99)
T1 sequence: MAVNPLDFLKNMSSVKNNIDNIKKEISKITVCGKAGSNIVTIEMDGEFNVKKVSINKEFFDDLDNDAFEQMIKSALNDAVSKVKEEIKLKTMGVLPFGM


target: T1, EbfC; experiment: EMSA

Row | Binder | binding result
1 | b-C30 (dsDNA) DNA 1: TTGTAATGAGTAGTGCATTTGCAATGGAGAGATTTTGGGGAGTTGTTTAAAATTACATTTGCGTTTTGTTAAAACACAACAGCTGAATGTAACTAAATTATATATTTAAATCTTTGAAATATTGC DNA 2: GCAATATTTCAAAGATTTAAATATATAATTTAGTTACATTCAGCTGTTGTGTTTTAACAAAACGCAAATGTAATTTTAAACAACTCCCCAAAATCTCTCCATTGCAAATGCACTACTCATTACAA | binds
2 | b-C40 (dsDNA) DNA 1: TTGTAATGAGTAGTGCATTTGCAATGGAGAGATTTTGGGGAGTTGTTTAAAATTACATTTGCGTTTTGTTAAAACACAACAGCTGAATGTGACAAAATTATATATTTAAATCTTTGAAATATTGC DNA 2: GCAATATTTCAAAGATTTAAATATATAATTTTGTCACATTCAGCTGTTGTGTTTTAACAAAACGCAAATGTAATTTTAAACAACTCCCCAAAATCTCTCCATTGCAAATGCACTACTCATTACAA | binds

target: T1, EbfC; experiment: EMSA; remark: another data set of the same source

Row | Binder | binding result
3 | b-C2+3 (dsDNA) DNA 1: TTGTAATGAGTAGTGCATTTGCAATGGAGAGATTTTGGGGAGTTGTTTAAAATTACATTTGCGTTTTGTTACAACACAACAGCTGAATGTAACAAAATTATATATTTAAATCTTTGAAATATTGC DNA 2: GCAATATTTCAAAGATTTAAATATATAATTTTGTTACATTCAGCTGTTGTGTTGTAACAAAACGCAAATGTAATTTTAAACAACTCCCCAAAATCTCTCCATTGCAAATGCACTACTCATTACAA | binds
4 | b-C1/2+3 (dsDNA) DNA 1: TTGTAATGAGTAGTGCATTTGCAATGGAGAGATTTTGGGGAGTTGTTTAAAATTACATTTGCGTTTTGTTACAACACAACAGCTGAACACAACAAAATTATATATTTAAATCTTTGAAATATTGC DNA 2: GCAATATTTCAAAGATTTAAATATATAATTTTGTTGTGTTCAGCTGTTGTGTTGTAACAAAACGCAAATGTAATTTTAAACAACTCCCCAAAATCTCTCCATTGCAAATGCACTACTCATTACAA | binds

Target: the molecule itself
Experiment: SEC

Row | Binder | stoichiometry N
5 | EbfC K16A mutant (natural protein, Borrelia burgdorferi strain B31, UniProt O51418 1-99, looked up) MAVNPLDFLKNMSSVANNIDNIKKEISKITVCGKAGSNIVTIEMDGEFNVKKVSINKEFFDDLDNDAFEQMIKSALNDAVSKVKEEIKLKTMGVLPFGM | 2
6 | EbfC D78A mutant (natural protein, Borrelia burgdorferi strain B31, UniProt O51418 1-99, looked up) MAVNPLDFLKNMSSVKNNIDNIKKEISKITVCGKAGSNIVTIEMDGEFNVKKVSINKEFFDDLDNDAFEQMIKSALNAAVSKVKEEIKLKTMGVLPFGM | 2
7 | EbfC K23A mutant (natural protein, Borrelia burgdorferi strain B31, UniProt O51418 1-99, looked up) MAVNPLDFLKNMSSVKNNIDNIAKEISKITVCGKAGSNIVTIEMDGEFNVKKVSINKEFFDDLDNDAFEQMIKSALNDAVSKVKEEIKLKTMGVLPFGM | 2
8 | EbfC E85A mutant (natural protein, Borrelia burgdorferi strain B31, UniProt O51418 1-99, looked up) MAVNPLDFLKNMSSVKNNIDNIKKEISKITVCGKAGSNIVTIEMDGEFNVKKVSINKEFFDDLDNDAFEQMIKSALNDAVSKVKAEIKLKTMGVLPFGM | 2
9 | EbfC K82A mutant (natural protein, Borrelia burgdorferi strain B31, UniProt O51418 1-99, looked up) MAVNPLDFLKNMSSVKNNIDNIKKEISKITVCGKAGSNIVTIEMDGEFNVKKVSINKEFFDDLDNDAFEQMIKSALNDAVSAVKEEIKLKTMGVLPFGM | 2
10 | EbfC D20A mutant (natural protein, Borrelia burgdorferi strain B31, UniProt O51418 1-99, looked up) MAVNPLDFLKNMSSVKNNIANIKKEISKITVCGKAGSNIVTIEMDGEFNVKKVSINKEFFDDLDNDAFEQMIKSALNDAVSKVKEEIKLKTMGVLPFGM | 2
11 | EbfC K84A mutant (natural protein, Borrelia burgdorferi strain B31, UniProt O51418 1-99, looked up) MAVNPLDFLKNMSSVKNNIDNIKKEISKITVCGKAGSNIVTIEMDGEFNVKKVSINKEFFDDLDNDAFEQMIKSALNDAVSKVAEEIKLKTMGVLPFGM | 2
12 | EbfC K88A mutant (natural protein, Borrelia burgdorferi strain B31, UniProt O51418 1-99, looked up) MAVNPLDFLKNMSSVKNNIDNIKKEISKITVCGKAGSNIVTIEMDGEFNVKKVSINKEFFDDLDNDAFEQMIKSALNDAVSKVKEEIALKTMGVLPFGM | 2

target: T1, EbfC; experiment: EMSA; remark: another data set of the same source

Row | Binder | binding result
13 | b-C50 (dsDNA) DNA 1: TTGTAATGAGTAGTGCATTTGCAATGGAGAGATTTTGGGGAGTTGTTTAAAATTACATTTGCGTTTTGTTAAAACACAACAGCTGAATGTATCAAAATTATATATTTAAATCTTTGAAATATTGC DNA 2: GCAATATTTCAAAGATTTAAATATATAATTTTGATACATTCAGCTGTTGTGTTTTAACAAAACGCAAATGTAATTTTAAACAACTCCCCAAAATCTCTCCATTGCAAATGCACTACTCATTACAA | no binding
14 | b-C20 (dsDNA) DNA 1: TTGTAATGAGTAGTGCATTTGCAATGGAGAGATTTTGGGGAGTTGTTTAAAATTACATTTGCGTTTTGTTAAAACACAACAGCTGAATGTAAAAAAATTATATATTTAAATCTTTGAAATATTGC DNA 2: GCAATATTTCAAAGATTTAAATATATAATTTTTTTACATTCAGCTGTTGTGTTTTAACAAAACGCAAATGTAATTTTAAACAACTCCCCAAAATCTCTCCATTGCAAATGCACTACTCATTACAA | no binding
